Values quoted from earlier work in paper PMC11061240.
pKd: −log10 of the molar value. Read-outs that look alike come from different tables or passages of the source.

Columns and labels:
[1] = molecular target: FGL1 (UniProt Q08830)
[2] = molecular target: α-synuclein preformed fibrils (UniProt P37840)
[3] = molecular target: FGL1 (UniProt Q08830); assay: BLI

UniProt Q08830, sequence (Q08830 23-312): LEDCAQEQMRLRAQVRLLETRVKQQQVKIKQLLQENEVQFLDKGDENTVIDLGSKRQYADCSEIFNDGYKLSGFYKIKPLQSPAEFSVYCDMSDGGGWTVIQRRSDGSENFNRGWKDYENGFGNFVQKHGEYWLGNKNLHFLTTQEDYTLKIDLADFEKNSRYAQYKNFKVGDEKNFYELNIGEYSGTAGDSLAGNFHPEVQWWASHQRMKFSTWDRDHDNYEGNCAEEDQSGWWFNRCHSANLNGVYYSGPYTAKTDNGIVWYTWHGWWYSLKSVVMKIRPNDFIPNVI

| pKd [1] | pKd [2] | pKd [3] | Substance |
| --- | --- | --- | --- |
| 5.15 | 7.10 | – | LAG3 (from UniProt P18627) |
| – | – | 8.82 | LAG3 ECD (from UniProt Q61790) |
